Test results: the supplement of paper PMC11246515
± gives the standard deviation of the averaged measurements.

Test: total protein half-life in vivo (active degradation + dilution); higher = more stable protein
[1] = E. coli NCM3722 delta-clpP delta-lon delta-hslV, growth: N-lim chemostat, doubling time 6 h
[2] = E. coli NCM3722 delta-clpP, growth: N-lim chemostat, doubling time 6 h
[3] = E. coli NCM3722 delta-hslV, growth: N-lim chemostat, doubling time 6 h
[4] = E. coli NCM3722 delta-lon, growth: N-lim chemostat, doubling time 6 h
[5] = E. coli NCM3722 delta-smpB, growth: N-lim chemostat, doubling time 6 h
[6] = wild type E. coli NCM3722, growth: C-lim chemostat, doubling time 3 h
[7] = wild type E. coli NCM3722, growth: C-lim chemostat, doubling time 6 h
[8] = wild type E. coli NCM3722, growth: C-lim chemostat, doubling time 12 h
[9] = wild type E. coli NCM3722, growth: N-lim chemostat, doubling time 6 h
[10] = wild type E. coli NCM3722, growth: N-lim chemostat, doubling time 12 h
[11] = wild type E. coli NCM3722, growth: P-lim chemostat, doubling time 6 h
[12] = wild type E. coli NCM3722, growth: P-lim chemostat, doubling time 12 h

Sequence | total protein half-life in vivo [1] | total protein half-life in vivo [2] | total protein half-life in vivo [3] | total protein half-life in vivo [4] | total protein half-life in vivo [5] | total protein half-life in vivo [6] | total protein half-life in vivo [7] | total protein half-life in vivo [8] | total protein half-life in vivo [9] | total protein half-life in vivo [10] | total protein half-life in vivo [11] | total protein half-life in vivo [12]
MRYPVDVYTGKIQAYPEGKPSAIAKIQVDGELMLTELGLEGDEQAEKKVHGGPDRALCHYPREHYLYWAREFPEQAELFVAPAFGENLSTDGLTESNVYMGDIFRWGEALIQVSQPRSPCYKLNYHFDISDIAQLMQNTGKVGWLYSVIAPGKVSADAPLELVSRVSDVTVQEAAAIAWHMPFDDDQYHRLLSAAGLSKSWTRTMQKRRLSGKIEDFSRRLWGK | 4.688 ± 0.014 h | 4.89 ± 0.61 h | 4.614 ± 0.023 h | 5.77 ± 0.072 h | 4.46 ± 0.23 h | 3.04 ± 0.29 h | 6.38 ± 1.3 h | 9.06 ± 0.23 h | 4.7 ± 0.19 h | 7.96 ± 1.1 h | 5.64 ± 0.12 h | 12 ± 0.28 h
MRYRIFLLFFFALLPTSLVWAAPAQRAFSDWQVTCNNQNFCVARNTGDHNGLVMTLSRSAGAHTDAVLRIERGGLKSPEASEGEIAPRLLLDGEPLALSGDKWRISPWLLVTDDTATITAFLQMIQEGKAITLRDGDQTISLSGLKAALLFIDAQQKRVGSETAWIKKGDEPPLSVPPAPALKEVAVVNPTPTPLSLEERNDLLDYGNWRMNGLRCSLDPLRREVNVTALTDDKALMMISCEAGAYNTIDLAWIVSRKKPLASRPVRLRLPFNNGQETNELELMNATFDEKSRELVTLAKGRGLSDCGIQARWRFDGQRFRLVRYAAEPTCDNWHGPDAWPTLWITR | 4.79 ± 0.75 h | 5.182 ± 0.02 h | 6.05 ± 0.37 h | 5.51 ± 0.2 h | 5.55 ± 0.54 h | 3.44 ± 0.45 h | 5.86 ± 1.1 h | 10.4 ± 2 h | 5.2 ± 0.56 h | 12.9 ± 3.8 h | 4.81 ± 0.49 h | 9.92 ± 0.41 h
MSAEHVLTMLNEHEVKFVDLRFTDTKGKEQHVTIPAHQVNAEFFEEGKMFDGSSIGGWKGINESDMVLMPDASTAVIDPFFADSTLIIRCDILEPGTLQGYDRDPRSIAKRAEDYLRSTGIADTVLFGPEPEFFLFDDIRFGSSISGSHVAIDDIEGAWNSSTQYEGGNKGHRPAVKGGYFPVPPVDSAQDIRSEMCLVMEQMGLVVEAHHHEVATAGQNEVATRFNTMTKKADEIQIYKYVVHNVAHRFGKTATFMPKPMFGDNGSGMHCHMSLSKNGVNLFAGDKYAGLSEQALYYIGGVIKHAKAINALANPTTNSYKRLVPGYEAPVMLAYSARNRSASIRIPVVSSPKARRIEVRFPDPAANPYLCFAALLMAGLDGIKNKIHPGEAMDKNLYDLPPEEAKEIPQVAGSLEEALNELDLDREFLKAGGVFTDEAIDAYIALRREEDDRVRMTPHPVEFELYYSV [P0A9C5] | 5.3 ± 0.14 h | 4.58 ± 0.32 h | 4.63 ± 0.14 h | 5.06 ± 0.33 h | 4.02 ± 0.12 h | 3.39 ± 0.49 h | 6.33 ± 0.86 h | 11.5 ± 0.3 h | 4.25 ± 0.046 h | 7.49 ± 0.92 h | 5.8 ± 0.092 h | 12.1 ± 0.55 h
MSAFKKSLLVAGVAMILSNNVFADEGHGIVKFKGEVISAPCSIKPGDEDLTVNLGEVADTVLKSDQKSLAEPFTIHLQDCMLSQGGTTYSKAKVTFTTANTMTGQSDLLKNTKETEIGGATGVGVRILDSQSGEVTLGTPVVITFNNTNSYQELNFKARMESPSKDATPGNVYAQADYKIAYE | 5.72 h | 5.47 h | 5.25 h |  | 3.96 ± 0.24 h | 1.78 h |  |  |  |  |  | 
MSAGRLNKKSLGIVMLLSVGLLLAGCSGSKSSDTGTYSGSVYTVKRGDTLYRISRTTGTSVKELARLNGISPPYTIEVGQKLKLGGAKSSSITRKSTAKSTTKTASVTPSSAVPKSSWPPVGQRCWLWPTTGKVIMPYSTADGGNKGIDISAPRGTPIYAAGAGKVVYVGNQLRGYGNLIMIKHSEDYITAYAHNDTMLVNNGQSVKAGQKIATMGSTDAASVRLHFQIRYRATAIDPLRYLPPQGSKPKC |  | 6.06 ± 0.3 h | 6.34 ± 0.85 h | 6.04 ± 0.44 h | 5.693 ± 0.011 h | 3.22 ± 0.21 h | 5.4794 ± 0.0017 h | 9.64 ± 0.25 h | 5.64 ± 0.52 h | 10.8 ± 0.38 h | 6.32 ± 0.37 h | 13.3 ± 0.95 h
MSAKHPVIAVTGSSGAGTTTTSLAFRKIFAQLNLHAAEVEGDSFHRYTRPEMDMAIRKARDAGRHISYFGPEANDFGLLEQTFIEYGQSGKGKSRKYLHTYDEAVPWNQVPGTFTPWQPLPEPTDVLFYEGLHGGVVTPQHNVAQHVDLLVGVVPIVNLEWIQKLIRDTSERGHSREAVMDSVVRSMEDYINYITPQFSRTHLNFQRVPTVDTSNPFAAKGIPSLDESFVVIHFRNLEGIDFPWLLAMLQGSFISHINTLVVPGGKMGLAMELIMLPLVQRLMEGKKIE [P0AEX5] | 5.45 ± 0.28 h | 5.4 ± 0.23 h | 4.95 ± 0.67 h | 4.68 ± 1.1 h | 5.185 ± 0.032 h | 2.96 ± 0.14 h | 5.5 ± 0.22 h | 11.8 ± 3.6 h | 5.42 ± 0.28 h | 10.9 ± 2.4 h | 6.156 ± 0.01 h | 12.4 ± 2.5 h
MSALFLAIPLTIFVLFVLPIWLWLHYSNRSGRSELSQSEQQRLAQLADEAKRMRERIQALESILDAEHPNWRDR [P0AFM9] | 6.51 ± 0.1 h | 6.06 h | 6.22 ± 0.43 h | 5.01 ± 1.7 h | 6.04 ± 0.43 h | 2.84 ± 0.24 h | 5.55 ± 1.4 h | 13.4 ± 2.2 h | 6.02 ± 0.28 h |  | 4.5 ± 1.6 h | 12.1 ± 0.9 h
MSALNKKSFLTYLKEGGIYVVLLVLLAIIIFQDPTFLSLLNLSNILTQSSVRIIIALGVAGLIVTQGTDLSAGRQVGLAAVVAATLLQSMDNANKVFPEMATMPIALVILIVCAIGAVIGLINGLIIAYLNVTPFITTLGTMIIVYGINSLYYDFVGASPISGFDSGFSTFAQGFVALGSFRLSYITFYALIAVAFVWVLWNKTRFGKNIFAIGGNPEAAKVSGVNVGLNLLMIYALSGVFYAFGGMLEAGRIGSATNNLGFMYELDAIAACVVGGVSFSGGVGTVIGVVTGVIIFTVINYGLTYIGVNPYWQYIIKGAIIIFAVALDSLKYARKK | 3.21 h | 6.19 h | 6.83 ± 0.54 h | 6.18 h | 6.18 ± 0.67 h | 3.05 ± 0.18 h |  | 12 ± 0.2 h |  |  | 5.49 ± 1.3 h | 
